The series deals with the molecule itself. The series is described as follows: non-reducing vs reducing SDS PAGE, subunit self-association (disulfide cross-link). The protocol: In order to observe the disulfide bonding of lysine decarboxylase mutant strain, the protein sizes when reducing power was applied and not applied to wild type lysine decarboxylase LdcI (SEQ ID NO: 15) and the mutant strain wherein phenylalanine at position 14 is substituted with cysteine, and lysine at position 44 is substituted with cysteine (F14C/K44C, SEQ ID NO: 6) were measured with SDS PAGE. Such a measurement can confirm whether a shared bond is formed between sulfur elements in a form —S—S— wherein two SH groups added to the mutant strain are producing in oxidation. In a reducing SDS PAGE, reducing power is applied to both of the wild type and the mutant strain to break all disulfides where bonding is possible, and then the sizes are observed, and in non-reducing SDS PAGE, it was observed whether disulfide bond is formed.

B1: lysine decarboxylase LdcI mutant strain wherein phenylalanine at position 14 is substituted with cysteine, and lysine at position 44 is substituted with … (enzyme)
chain: MNVIAILNHMGVYCKEEPIRELHRALERLNFQIVYPNDRDDLLCLIENNARLCGVIFDWDKYNLELCEEISKMNENLPLYAFANTYSTLDVSLNDLRLQISFFEYALGAAEDIANKIKQTTDEYINTILPPLTKALFKYVREGKYTFCTPGHMGGTAFQKSPVGSLFYDFFGPNTMKSDISISVSELGSLLDHSGPHKEAEQYIARVFNADRSYMVTNGTSTANKIVGMYSAPAGSTILIDRNCHKSLTHLMMMSDVTPIYFRPTRNAYGILGGIPQSEFQHATIAKRVKETPNATWPVHAVITNSTYDGLLYNTDFIKKTLDVKSIHFDSAWVPYTNFSPIYEGKCGMSGGRVEGKVIYETQSTHKLLAAFSQASMIHVKGDVNEETFNEAYMMHTTTSPHYGIVASTETAAAMMKGNAGKRLINGSIERAIKFRKEIKRLRTESDGWFFDVWQPDHIDTTECWPLRSDSTWHGFKNIDNEHMYLDPIKVTLLTPGMEKDGTMSDFGIPASIVAKYLDEHGIVVEKTGPYNLLFLFSIGIDKTKALSLLRALTDFKRAFDLNLRVKNMLPSLYREDPEFYENMRIQELAQNIHKLIVHHNLPDLMYRAFEVLPTMVMTPYAAFQKELHGMTEEVYLDEMVGRINANMILPYPPGVPLVMPGEMITEESRPVLEFLQMLCEIGAHYPGFETDIHGAYRQADGRYTVKVLKEESKK
modifications: disulfide bond between the introduced cysteines (positions 14 and 44) of neighbouring subunits
notes: Purified enzyme; also called F14C/K44C; F14C/K44C mutant strain
Take B1: the binding result is given as “binds”.

Values taken from patent US20180291362A1 (SEOUL NATIONAL UNIVERSITY R AND DB FOUNDATION, published 2018).
